Data set [1] addresses SARS-CoV nucleocapsid protein (SARS-CoV, UniProt P59595 1-422). Nature of the data set: […], room temperature; pH not stated. The following applies: protein: commercial; chain copies: 2.
Another data set deals with SARS-CoV spike RBD (SARS-CoV, UniProt P59594 306-527). Nature of the data set: […], room temperature; pH not stated. The following applies: protein: commercial.
Another data set has as its target SARS-CoV-2 spike RBD (SARS-CoV-2, UniProt P0DTC2 319-541).

Sequence of SARS-CoV nucleocapsid protein (P59595 whole entry): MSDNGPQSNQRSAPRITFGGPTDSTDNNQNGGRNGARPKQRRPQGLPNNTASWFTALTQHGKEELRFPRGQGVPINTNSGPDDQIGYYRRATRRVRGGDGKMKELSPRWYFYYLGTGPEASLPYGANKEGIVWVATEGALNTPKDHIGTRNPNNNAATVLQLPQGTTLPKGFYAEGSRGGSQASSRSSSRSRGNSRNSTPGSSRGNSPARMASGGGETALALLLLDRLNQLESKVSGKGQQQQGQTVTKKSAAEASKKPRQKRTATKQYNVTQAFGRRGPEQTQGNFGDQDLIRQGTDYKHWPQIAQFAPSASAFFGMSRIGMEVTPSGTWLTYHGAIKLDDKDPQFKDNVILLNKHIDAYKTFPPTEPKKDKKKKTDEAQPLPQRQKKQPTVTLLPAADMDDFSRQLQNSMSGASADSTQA

B1: Aptamer-N (structured_DNA)
DNA: GCTGGATGTCGCTTACGACAATATTCCTTAGGGGCACCGCTACATTGACACATCCAGC
In the case of B1, in data set [1], the binding result is “binds”.

B2: Aptamer-S (structured_DNA)
DNA: CAGCACCGACCTTGTGCTTTGGGAGTGCTGGTCCAAGGGCGTTAATGGACA
As for B2, the binding result with SARS-CoV spike RBD and with SARS-CoV-2 spike RBD was “binds” in each case.
